{"source": "paper PMC5486983", "proteins": {"B1": {"name": "ACS-7 (Caenorhabditis elegans) (protein)", "chain": "MIFHGEQLENHDKPVHEVLLERFKVHQEKDPDNVAFVTAENEDDSLGFQQLGKKVLQISEWFVENGYKKGDVFLLASYNNWRCFAAALGAWRAGLIVSAAASQFTSFEMNYQIEDSQSQVILVDKHTLPVVQEACKNLKFVKQIISISANPPSPVIKFDVLTSRLVRNLKMPLIDPKNDIVFLPYSSGTTGKPKGVMISHLNFSMMLESSLRFFDANAKAIGLPPDFVLPYDLHFLPMYHAMGMFRTLLTSYRGTTQIMFTKFDMELMLKNIEKYSIMVLSLVPAIAVRMLNSPLLQKYDVSSLVSVTVGSAPFPESASKKLKQLLPNVNIVQGYGMTELTFATHLQSPGSPDGSVGRLVPGTSMKVKKEDGTLCGPHEIGELWIKGPQMMKGYWKKEQQTNELLDEHGFMRTGDIVYFDKNGETFICDRIKELIKVNAKQVAPAELESVILEHDDVADVCVFGVDDASSGERPVACVVSKRGRDMETSKAIMKHINQKLARYKHIKEIEFVSEIMRTGTGKLLRRAMKKAFLDAKKAKL"}}, "substrate": "O=C(O)c1c[nH]c2ccccc12", "assay": "LC-MS of adenylate", "format": "biochemical, Caenorhabditis elegans", "conditions": "with ATP and coenzyme A; adenylate formed, no CoA ester", "data": [{"protein": "B1", "values": [{"measurement": "Km", "result": "270 ± 90", "unit": "µM"}]}]}
